Assay: label from the status in PepcDB records
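Further: failed if final PepcDB status was selected cloned or expressed and not failed if soluble or beyond.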

Row | Sequence | protein production
1 | QIHLFSEPQFQGHSQSFEETTSQIDDSFSTKSCRVSGGSWVVYDGENFTGNQYVLEEGHYPCLSAMGCPPGATFKSLRFI | not failed
2 | VRHTVKIDKDTLLQDYGFHISESLPLTVVAVTAGGSAHGKLFPGDQILQMNNEPAEDLSWERAVDILREAEDSLSITVVRCTS | not failed
3 | MIRVGYLGPEATFTNMAVSRFFPEAEHVPYRTIPDCMDAAANGNVDYAVVPLENAIEGSVNITIDYLVHEQPLSIVGEITVPIQQHLLVHPQYAEVWEEVYAVHSHPHAIAQCHKFLNEELKGITARDMTSTSAAAQYVKEHPEEKIAAIANEAAAEKYGLTIVRRSIHTHKNNHTRFLVLHKKKKAILSNNGENRGEKTTLMITLPADYAGALYQVLSAFAWRKLNLSKIESRPMKTGLGNYFFLIDVDKAYDDVLLPGVTMELEALGFSVTVLGSYSSYWL | failed
4 | MADSDSNEVLIEEIDSNDVPENELEQFQETEPLRVVDIIDCDTDGERRCIADDEEEGALIKRYVQGVQCLEFPDFCTKLEASDEDEEGNDEEPSEAAGSIEKPNTSAQAKTSQEQSTGSGRSGGGGFRKSQLSTALQGLMGEANLSFVYGRYETAERICMEIIRQNPLASEPFYTLAEIYENRDEVKFLNFSTLAAHLNPQDRDMWIRVSDLLVQQGNLARARLIYTKAIKMLPKVYQLRLRKAQLLQKMGETNASMFTYLKMLPLMPPDEWKMCLNTAKNVARYFHVLEKHSLALEAMEGAYSVCGARFTLEDINIYLELLILNKQYAKVLRCLRERTNFELENDQEESLELIYFCEIPDDYVPELRAKLCVSLIHMRAHHLLGYLIQNVQEHITLTADRVELYMDITEALMQEHKYAEAIALMSPITDGDTVECPAFVWLRQAECLRQLNRTNEAIQSYEKVVQLAPFCYDARFTLSALLKQQGRHEEAVQALEQPGEAEGQPLIARLLYERCVMLQQIGRIEEFLDVGYALLSRHSIKLYNREEMMAAANGGSAYNSESLKTIIQMRSKAVDNSAEQDLQDPAKNAASETSDLTVKDEFELFRELVRTAFKHGMHSAAEKICFAMVTTKRFTYYHHEIERIMVLTCYYNDDCAIAFSYLRELIAKQPSQTTLWNMLSLMIQKGDEVRYYRYMRRLMQRHPVDTKPMRIFQGHYHLNCASFKYALNIYMPILRENPDPLVALCIAVAFNQLSLQKKVLRKSASVAQAVAFGQRYKELRSAGHELADCAAQQEIFYNIGRIYHQANILHLAVDYYEKALAVPVHPLIAEHESTLGLQHEVAFNLHLIYRANGNKWKARQYLMRYCVV | failed
5 | MHLKKIWAVIYAVMLAAFSTFVLLDAFVIPKDRIKADEPIQSQEITDESIEAKAEAVITENSYKDDKISITISELREYDTSIYVADIQLADASYLRAGLADGTFGRNVTEVTSQIAQDSNAILAINGDFYGFRNKGYVMRNGYLYRETAQQGRQGNSRQEDLVIYEDGHMDVIEENEVAAQTLKDSGASQIFSFGPGLIKNGNITVDENSEVEQSMQSNPRTAIGMITPLHYIMAVSDGRTEASEGLTLYQLAQIMKGQDCVTAYNLDGGGSSTMWFNGEVVNKPTSYGSKISERAVSDIVYIGR | failed
6 | MTMLQIVGALILLIAGFAILRLLFRALTSTASALAGFILLCLFGPALLAGYITERITRLFHIRWLAGVFLTIAGMIISFMWGLDGKHIALEAHTFDSVKFILTTALAAGLLALPVQIRTIQQNGLTPEDISKEINGYYCCFYTAFFLMACSAYAPLIALQFDISPSLMWWGGLLYWLAALVTLLWAASQIQALKRLTSAISQTLEEQPVLNSKSWLSSLQNDYSLPETLTERIWLTLISQRISRGELREFELADGNWLLDNAWYERNMAGFNEKLRESLSFTPDELKTLFRNRLNLSPEANDDFLDRCLDGGDWYPFSEGRRFVSFHHVDELRICASCGLTEVHHAPENHKPDPEWYCSSLCRETETLCQDIYERSHTGFISDATANGLILMKLPETWSTNEKMFASGGQGHGFAAERGNHIVDRVRLKNARILGDNNARNGADRLVSGTEIQTKYCSTAVRSVGAAFDGQNGQYRYMGNHGPMQLEVPRDQYAGAVETMKNKIREGKVPGVTDPAEASRLIRRGHLTYTQARNITRFGTIESVTYDIAEGSVVSLAAGGISFALTTSVFWLSTGDRDAALQTAAVQAGKTFTRTLAVYVTTQQLHRLSVVQGMLKHIDFSTASPTVRQALQKGTGAGNISALNKVMKGTLVTSLALVAVTTGPDMIKMLRGRISGAQFIRNLAVASSGVAGGAVGSVAGGILFSPLGPFGALTGRVVGGVLGGMIASAVSGKIAGALVEEDRVKILAMIQEQVTWLAGSFLLTGHEIENLNANLARVIDQNALEIIFAAGIQQRAATNMLIKPLVVSIIRQRPVMEYDASHLGNMVNRLEETLPPELPA | failed
7 | MVEIIIPVGPNDKLEWVKRSVNSALLQSVDKVIIYDNSERADIYNFFQELKDKLVYIKDKRMTKVNMARLRNKMLSLASDKYVIMLDSDVVIPKNYSNNIINKLERGVAYTWIHYAYSEEEIEKPLSISENNPNLGCAGLNLEVIKRIGYFDERYERDEDVWLYAKLKKTGYKVEPAEGRCLHLNKVHARLNLSSSVAEARRNLWRSKYDIMLMFDGLTDFTFLTGYSYYGSYYILAILSVIFHPLTFLYLPLIGYGVYYYKGPKKYLLNLIPGLSLAISFPYGLGYNLIQKLK | failed
8 | MVMIWYKALFSFNGRLNRQGFWIGFGINFIFLFIIANFGPKETAFSLTMVLPLLLASYSCVAVIIKRLHDRNRSARAILMMFIPLICYGVSLATQGTMAWLLGVMMPMFIGTMLLLEWGVFKSYPQANQYGEKGETFCFT | failed
9 | MSISSHDVGRTYPTTDPYLVTAEKIRELATALGDNAPAYRGDDPIAPPTFAMVLASRAWEALFDDEQLDLRLEHMIHTDQSFHWIRPLHEGDEVTAALTITSVRTRGNTDIIGINVSLDHVDGEHLGNATSTLWHTRPEGNA | failed
10 | AQGLDGRMLVEAPEEVGAPADVAARLGIEPGALVVHRRRRATIGEDVVQLQDAWYPLEIARAAGLDRPGKVVGGVLGAMTGAGLSPTSTDHDVEVWVPSAQQAAELSLGSRVSVLVVERVTYDATVRVLELTRHTGAADRLTLTYKGLPLRATGAEGSTS | failed
11 | SLSRRKPNPVIVADIRQAEGALAEIATIDRKVGEIEAQMNEAIDAAKARASQKSAPLLARRKELEDGVATFATLNKTEMFKDRKSLDLGFGTIGFRLSTQIVQMSKITKDMTLERLRQFGISEGIRIKEDVNKEAMQGWPDERLEMVGLKRRTTDAFYIEINREEVADTAA | not failed
12 | MMDVARAKFLPHEQVTFQVADATTLPFENEAFDAVVCQFGVMFFDKDTAFREAYRTLGRGGRYLFSVWDSRRYNPFASLAFEVLKQFFPLNPPRFLEAPVSSFEIDPIKEALIQSGFERIVISVQGREHDILDVRTFARGLVFSPVIEEIRERGGVEPEDIIAALAEALKREYGSRPTRYPMQAILFEAEKP | failed
13 | MLPIYTGSAIQCPMRLDAYLVEMGHFKSRGRAKTAILDGKVKVNGIAVTKVSRDVSIDDTIEVAEGLDQPQGYFKLKYVQEESGVLKPGDRVLDLGSSAGGFLLFASEIADHVKGIEFSRDFRSELGKIAYERENVEIIFGDVFTIPLKELSEEPVDVILSDMTLEPEDSIKALSRMLPLLKEGGRLLQVIKIPKKKNPKPILSRIENLGLEIQQVLSSEKQEIYVVAKRPFLEGKESTEENE | failed
14 | MCGAWFFGARVFEFFTSLFESMKVLKLLPNFLTILRIVLSLFLLFLLLNTRTYFSFLTPFQTNMISSLVFLFAALTDLLDGYIARSYKAKSRFGEIFDPLADKILILSAFLGLVYLDRVNAWIPFVILGREFFISGLRVLAANEKKDIPVNALGKYKTVSQVVAIGALLADVTYSYALVAIAVFLTLYSGIDYTIKYYKS | failed
15 | MKNFFNHIELKFANLLSKISFMLLMVVGLLMVYFLFREVYNLVLLAFLSESEVHYYDILESILSFFIFFEFLTLIITSLRNKGHVSLIFLLSLGITSLIRLLLTYHERLVGVLLIASAILILIIGVFVLKKFVFPNDDTADYF | failed
16 | MEGNSDSMILVTVNPKTKKTTMTSLERDILVKLSGSKTNDQTGYDAKLNAAYAAGGAKMAIMTVQDMLDIKIDKYVQINMEGLVQLVDAVGGITVTNHFDFPISIEEHEPEFTASVEPGTHKINGEQALVYSRMRYDDPDGDYGRQKRQREVISKVLKKILALDSVSKYRKILSAVSKNMQTNIEISSSTIPKLLGYSDALKSIRTYQLKGEGTTIDGGSYQLVTSKELLKAQNRIKGQLGLKKSTAENLKTTASLYENFYGGDTSIYDSSSSASDYSSSGNYSGSSSDYGSSSSYGSNSSSGSSSDYSGQNSYNQGNYQQPAAGTGIGNLEHHHHHH | not failed
17 | MDLLLKAALGAAVVVILAALAKTRNYYIAGLVPLFPTFALIAHYIVGKGRSLDDLKTTILFGMWSIIPYFVYLATLYVMVDRLRLEASLAVAAVAWLIAATILVSVWVRLHA | failed
18 | MTIAFLVLVVALASGFAFLNGFRDVSNAVALSTRTRALTPSIAVLLAAIFNFVGAMLSGTFILAFTQSWITLPEGTSGLTMLASALTAAILWGVYAWWRGIPLSSTNSLIGGLIGAGAASVLVGGNAVGGMDNVLLTQVALPLVLSPVIAFVAAYLLVWPVTWAARYTQPNVVNRRFRRAQAISTAAVAFGHGLQDGQRTAAVMVLAMVAAGLSSGSDVPLWILLVTAIMLTAGTMFGGWRISHTLGHKLIRVDPLRGFVAQTLTSVMLFIGAIGFHLPLSTTHTLTAAVLGSGVNQRFHTVNRRLVRRVLLFWVATPLITAAAAFILELAFSPLADL | failed
19 | MAISKDLYPSQEDLLYEEELLRNQFSLKLWWRYLIAKAESPFKKRFIIYERALKALPGSYKLWYAYLRERLDIVRNLPVTHPQYDSLNNTFERGLVTMHKMPRIWVMYLQTLTVQQLITRTRRTFDRALCALPVTQHDRIWEPYLVFVSQNGIPIETSLRVYRRYLMYDPSHIEEFIEFLVKSERWQESAERLASVLNDDKFYSIKGKTKHKLWLELCELLVHHANVISGLNVDAIIRGGIRKFTDEVGMLWTSLADYYIRKNLLEKARDIYEEGMMKVVTVRDFSVIFDVYSRFEESTVAKKMEMMSSSDEEDENEENGVEDDEEDVRLNFNLSVKELQRKILNGFWLNDDNDVDLRLARLEELMNRRPALANSVLLRQNPHNVEQWHRRVKIFEGNAAKQILTYTEAVRTVDPMKAVGKPHTLWVAFAKLYENHKDLVNTRVIFDKAVQVNYKTVDHLASVWCEWAEMELRHKNFKGALELMRRATAVPTVEVRRRVAADGNEPVQMKLHRSLRLWSFYVDLEESLGTLESTRAVYEKILDLRIATPQIIMNYAFLLEENKYFEDAFKVYERGVKIFKYPHVKDIWVTYLTKFVKRYGKTKLERARELFEHAVSMAPSDAVRTLYLQYAKLEEDYGLAKRAMKVYEEATKKVPEGQKLEMYEIYISRAAEIFGVPRTREIYEQAIESGLPHKDVKIMCIKFAELERSLGEIDRARALYKYSSQFADPRSDPEFWNKWHEFEVQHGNEDTYREMLRIKRSVSASYSQTHFILPENMMQKDKLLDVEDAKGELKRAGLPEDEMAALERQLLSTTTPTEPAKDGGRRVGFVSAGVISQSGENEGKPVTGNGEDIELPDESDDESDGDDHVEISQKEVPAAVFGGLARKRDEDGEEAGEDGAAQKLGALERIKRQKLNQ | failed
20 | MKREGNMTLLVRNFIVSIALAISDFFSFVISLYLAIGVLSITISDYETVISVNQLEGWKALHWLLGLCCIAWYSMRLRHYFYRKTFWFELKEILRTLVIFAIIEIAVMAFASWSFSRYLWVLTWFFVLLLVPLARMVTKRVLDVFGLWHRDTWIIGSGANAQEAYKAINSERNLGLVIVGFIAVTGERSENKDINGVPVLAHDPDWLSSMDKKTQFIVAVESHQSEVRNAWLRNFMIKGYRYISVIPTLRGMPLDSTDMSFIFSHEVMIFRVQQNLAKWSSRILKRAFDIVGSLAIIIILSPALIYISRKVKRDGGPSIYGHERIGKGGKSFKCLKFRSMVINSKEVLEKLLDSDSEAKKEWDATFKLKNDPRITKIGAFLRRTSLDELPQLFNVLKGEMSLVGPRPIITAELIRYNDEVDYYLLSKPGMTGLWQVSGRSDVDYETRVYLDAWYVKNWSMWNDIAILFKTISVVLKKDGAY | failed
